Data reported in US20150024465A1, “Carbohydrate-Binding Modules of a New Family” (Novozymes A/S, priority 2003, published 2015).

Tests used:
[1] = Competition binding assay with CBMX, Avicel and soluble carbohydrate; details: for Difference in A280 between samples with and without CBMX added: Avicel 20 mg/ml, 4 hours room temperature; for Share of CBMX kept in solution by the soluble carbohydrate (in words): competition with Avicel
Experimental: (§1) Affinity of CBMX for a number of soluble carbohydrates was tested in a competition assay by mixing 100 μl CBMX with both Avicel® (400 μl 50 mg/ml in 20 mM Tris, pH 7.5) and the soluble carbohydrate (dissolved in 500 μl 20 mM Tris, pH 7.5). As references, samples without CBMX or soluble carbohydrate added were used. If CBMX has affinity for the soluble carbohydrate it should be able to keep CBMX in solution which can be measured as increase in absorbance at 280 nm compared to sample without soluble carbohydrate added. After 4 hours incubation at room temperature with agitation, samples were centrifuged and absorbance at 280 nm was read using 200 μl supernatant in the well of a microtiter UV plate. Tested soluble carbohydrates were barley β-glucan (Megazyme, low viscosity), lichenan (Megazyme, Icelandic moss), CMC (carboxymethyl cellulose 7LF, Hercules, USA), Xyloglucan (Megazyme, amyloid, from tamarind seed), lupin galactan (Megazyme) and Locust bean gum (Sigma, G-0753).

[2] = Binding of CBMX to PASC (A280 of supernatant); details: for A280: Absorbance at 280 nm of 200 μl supernatant, absorbance of buffer subtracted: 20 mM Tris pH 7.5, 4 hours room temperature
Experimental: A similar binding study was performed with PASC (Phosphoric Acid Swollen Cellulose: To 5 g Avicel® moisted with water 150 ml ice-cold 85 ortho-phosphoric acid is added. After 1 hour stirring on ice bath, 500 ml cold acetone is added. The suspension is filtered and washed, first with acetone and then with water). 50 μl purified CBMX was mixed with 500 μl 20 mM Tris, pH 7.5 containing varying amount of PASO (0-10 mg/ml) in an Eppendorf tube. Samples were incubated 4 hours at room temperature with agitation. After centrifugation, 200 μl supernatant was transferred to the well of a microtiter plate and absorbance read at 280 nm.

[3] = Binding of CBMX to Avicel (A280 of supernatant after incubation and centrifugation); details: shorter incubation time (15 min to 1 hour) compared with 4 hours
[4] = as above; details: for A280: Absorbance at 280 nm of 200 μl supernatant, absorbance of buffer and Avicel subtracted: 20 mM Tris pH 7.5, 4 hours room temperature
Experimental: The carbohydrate-binding domain with affinity for Avicel® and purified as described in Example 2 (CBMX) was studied further. 50 μl purified CBMX was mixed with 500 μl 20 mM Tris, pH 7.5 containing varying amount of Avicel® (0-100 mg/ml) in an Eppendorf tube. After 4 hours incubation at room temperature with agitation, the samples were centrifuged. 200 μl supernatant was transferred to the well of a microtiter plate (Costar, UV plate) and absorbance read at 280 nm on a microtiter plate reader (SpectraMax® Plus, Molecular Devices).

[5] = Competition binding assay, references without soluble carbohydrate
Experimental: as §1

B1: CBMX: Carbohydrate-binding module of Pseudoplectania nigrella GH61 (positions 34-174 of SEQ ID NO:2), expressed in Aspergillus oryzae, purified on Avicel (protein, listed as Pseudoplectania nigrella)
chain: SSGTSNDKAVASSSIAAVDPVTSSVVASVQVPNFTATDVPTFTATDIPTFTATDVPIFTKKPQQPSTLLTRTRTHASVSFVAKPSAFIPKPSASTIPSKPKTPEEVNKCLDAVNACITQAQSSIGGVVNFEPCESQRALCY
Q: For B1, which “Difference in A280 between samples with and without CBMX added” value (“Difference … with and without CBMX added” for short) ([1]; CMC 25 mg/ml) is on record?
A: 0.129

Q: And the “Share of CBMX kept in solution by the soluble carbohydrate (in words)” value (from here on “Share of CBMX kept in solution”) ([1]; CMC)?
A: almost all

Q: And the “Difference … with and without CBMX added” value ([1]; Galactan 20 mg/ml)?
A: 0.043

Q: And the “Difference … with and without CBMX added” value ([1]; Lichenan 20 mg/ml)?
A: 0.025

Q: And the “Difference … with and without CBMX added” value ([1]; Locust bean gum 25 mg/ml)?
A: 0.087

Q: And the “Difference … with and without CBMX added” value ([1]; Xyloglucan 11 mg/ml)?
A: 0.052

Q: What about the “Difference … with and without CBMX added” value ([1]; beta-Glucan 20 mg/ml) of the same molecule?
A: 0.100

Q: What about the “Share of CBMX kept in solution” value ([1]; beta-glucan) of the same molecule?
A: almost all

Q: And the “Affinity of CBMX for the soluble carbohydrate (in words)” value (“Affinity of CBMX” for short) ([1]; galactan)?
A: to some extent

Q: And the “Share of CBMX kept in solution” value ([1]; galactan)?
A: about half

Q: What about the “Affinity of CBMX” value ([1]; lichenan) of the same molecule?
A: no affinity

Q: What about the “Share of CBMX kept in solution” value ([1]; lichenan) of the same molecule?
A: does not result in any increase

Q: What about the “Share of CBMX kept in solution” value ([1]; locust bean gum) of the same molecule?
A: the majority

Q: And the “Affinity of CBMX” value ([1]; xyloglucan)?
A: to some extent

Q: What about the “Share of CBMX kept in solution” value ([1]; xyloglucan) of the same molecule?
A: about half

Q: What about the “A280: Absorbance at 280 nm of 200 μl supernatant, absorbance of buffer subtracted” value (“A280: Absorbance … of buffer subtracted” for short) ([2]; PASC 0.0 mg/ml (CBMX alone)) of the same molecule?
A: 0.0753

Q: And the “A280: Absorbance … of buffer subtracted” value ([2]; PASC 0.625 mg/ml)?
A: 0.0682

Q: What about the “A280: Absorbance … of buffer subtracted” value ([2]; PASC 1.25 mg/ml) of the same molecule?
A: 0.0710

Q: What about the “A280: Absorbance … of buffer subtracted” value ([2]; PASC 2.5 mg/ml) of the same molecule?
A: 0.0618

Q: What about the “A280: Absorbance … of buffer subtracted” value ([2]; PASC 5 mg/ml) of the same molecule?
A: 0.0512

Q: And the “A280: Absorbance … of buffer subtracted” value ([2]; PASC 10 mg/ml)?
A: 0.0471

Q: And the “Affinity for PASC (in words)” value ([2]; increasing amount of PASC reduces absorbance of CBMX in the supernatant)?
A: has affinity

Q: And the “Completeness of binding to Avicel (in words)” value [3]?
A: less complete binding

Q: What about the “A280: Absorbance at 280 nm of 200 μl supernatant, absorbance of buffer and Avicel subtracted” value ([4]; Avicel 0.0 mg/ml (CBMX alone)) of the same molecule?
A: 0.0768

Q: And the “A280: Absorbance at 280 nm of 200 μl supernatant, absorbance of buffer and Avicel subtracted” value ([4]; Avicel 0.391 mg/ml)?
A: 0.0777

Q: And the “A280: Absorbance at 280 nm of 200 μl supernatant, absorbance of buffer and Avicel subtracted” value ([4]; Avicel 0.781 mg/ml)?
A: 0.0808

Q: And the “A280: Absorbance at 280 nm of 200 μl supernatant, absorbance of buffer and Avicel subtracted” value ([4]; Avicel 1.563 mg/ml)?
A: 0.0799

Q: And the “A280: Absorbance at 280 nm of 200 μl supernatant, absorbance of buffer and Avicel subtracted” value ([4]; Avicel 3.125 mg/ml)?
A: 0.0729

Q: And the “A280: Absorbance at 280 nm of 200 μl supernatant, absorbance of buffer and Avicel subtracted” value ([4]; Avicel 6.25 mg/ml)?
A: 0.0637

Q: And the “A280: Absorbance at 280 nm of 200 μl supernatant, absorbance of buffer and Avicel subtracted” value ([4]; Avicel 12.5 mg/ml)?
A: 0.0540

Q: What about the “A280: Absorbance at 280 nm of 200 μl supernatant, absorbance of buffer and Avicel subtracted” value ([4]; Avicel 25 mg/ml) of the same molecule?
A: 0.0326

Q: What about the “A280: Absorbance at 280 nm of 200 μl supernatant, absorbance of buffer and Avicel subtracted” value ([4]; Avicel 50 mg/ml) of the same molecule?
A: 0.0185

Q: What about the “A280: Absorbance at 280 nm of 200 μl supernatant, absorbance of buffer and Avicel subtracted” value ([4]; Avicel 100 mg/ml) of the same molecule?
A: 0.0095

Q: And the “Share of the protein that binds to Avicel (in words)” value ([4]; highest concentrations of Avicel, 4 hours incubation)?
A: large majority of the protein binds

Q: And the “Affinity for Avicel (in words)” value ([4]; summary statement)?
A: shown to have affinity

Q: And the “Difference … with and without CBMX added” value ([5]; None - Only Avicel (20 mg/ml) and CBMX, no soluble carbohydrate)?
A: 0.018

Q: And the “Difference … with and without CBMX added” value ([5]; None - Only CBMX, no Avicel)?
A: 0.108
